Laboratory results reported in the supplement of paper PMC9170038.

Experiments:
MS2 coat protein [1] = experiment: apparent KD of MS2 coat protein, switch OFF state (with FMN for OFF switches, without FMN for ON switches); designed switch direction (-1 OFF switch, 1 ON switch): 1; higher = weaker reporter binding; conditions: FMN input: 0 or 200 uM; Eterna round: R93 (includes R88 designs)
How it was run: (§1)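 On-chip transcription from Illumina sequencing clusters produced the designed RNA switches. These were titrated with SNAP-549-labelled MS2 coat protein (twofold steps, 0.7 or 1.5 nM to 3 µM) in 100 mM Tris-HCl pH 7.5, 80 mM KCl, 4 mM MgCl2, with or without constant ligand. The apparent KD given is the per-design median of normalised cluster binding-curve fits.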

MS2 coat protein [2] = experiment: apparent KD of MS2 coat protein, switch ON state; designed switch direction (-1 OFF switch, 1 ON switch): 1; higher = weaker reporter binding; conditions: FMN input: 0 or 200 uM; Eterna round: R93 (includes R88 designs)
How it was run: as §1

GGGAGACAUGAGGAUCACCCAUGUGAGAAGAGGCGAGGAUAUCGAAAGAAAGAAGAGAAACGAGAAGGCGCGAGGG [salish99-SS1-059]
apparent KD of MS2 coat protein (MS2 coat protein [1]): 75 nM
apparent KD of MS2 coat protein (MS2 coat protein [2]): 57.4 nM

GAAAAACAUGAGGAUCACCCAUGUAGAGAUAUGGGAGGAUAUACGAAGACGAAAGUCGAGGUAGAAGGCCUAAAAG [Garnet 56]
apparent KD of MS2 coat protein (MS2 coat protein [1]): 108 nM
apparent KD of MS2 coat protein (MS2 coat protein [2]): 27.7 nM

UUAAGCCGCGGGCAGGAUAUGUAUUAAAAUACAUGAGGAUCACCCAUGUGCAGGUGUAACACCUGACAGAAGGGCCAAUCGCAGC [Ceanreerqu]
apparent KD of MS2 coat protein (MS2 coat protein [1]): 228 nM
apparent KD of MS2 coat protein (MS2 coat protein [2]): 26.4 nM

ACAAAACAUGAGGAUCACCCAUGUCAGAAAUGGCAAGGAUAUAGAAAACAAAAACAAAAACUAGAAGGUGCAAAAC [Meechl SS1 R2 m3]
apparent KD of MS2 coat protein (MS2 coat protein [1]): 154 nM
apparent KD of MS2 coat protein (MS2 coat protein [2]): 84.8 nM

CCCAAUGCAACGAAGGAUAUCCGUCAUGCCACAUGAGGAUCACCCAUGUACUGGCGGCACAAGACGGAGAAGGUCGGGUGCUGUG [Quenrean]
apparent KD of MS2 coat protein (MS2 coat protein [1]): 11 nM
apparent KD of MS2 coat protein (MS2 coat protein [2]): 9.4 nM

UAUCAUUACACGAAGGAUAUCGAUAAUUGAACAUGAGGAUCACCCAUGUGACAUAUCUUACAGUUCGAGAAGGUCGAGGGUGAAG [JR_SS002_Sub706]
apparent KD of MS2 coat protein (MS2 coat protein [1]): 52 nM
apparent KD of MS2 coat protein (MS2 coat protein [2]): 28.9 nM

AGAAGACAUGAGGAUCACCCAUGUGGGAAUAUGGGAGGAUAUACAAAGACGAGAGUCAGAGUAGAAGGCCUAGGCC [salish99-ss1-110]
apparent KD of MS2 coat protein (MS2 coat protein [1]): 131 nM
apparent KD of MS2 coat protein (MS2 coat protein [2]): 49.8 nM

CGAAAGGAGAGAGAGGAUAUCCAAAGGAAAACAUGAGGAUCACCCAUGUAGAAGGUAGGAGAUUGGGAGAAGGCUCAAGAGAGCU [salish99-ss2-152]
apparent KD of MS2 coat protein (MS2 coat protein [1]): 32.6 nM
apparent KD of MS2 coat protein (MS2 coat protein [2]): 30.5 nM

AUAAAUAAAAUCGAGGAUAUCCAAUAAUAAACAUGAGGAUCACCCAUGUAAAAGAAAAUAUAAUGGGAGAAGGCGAAUAAUAAAU [JR_SS002_Sub1701]
apparent KD of MS2 coat protein (MS2 coat protein [1]): 20 nM
apparent KD of MS2 coat protein (MS2 coat protein [2]): 16.3 nM

AACAAUCUAUCUGAGGAUAUCAAGUCAAAGACAUGAGGAUCACCCAUGUUGCAGGAAACUGCUCUUGAGAAGGCAGAUAGAUUGA [SS2: 1130]
apparent KD of MS2 coat protein (MS2 coat protein [1]): 13.5 nM
apparent KD of MS2 coat protein (MS2 coat protein [2]): 9.84 nM

AGGAGACAUGAGGAUCACCCAUGUGAGAAGAGGCGAGGAUAUCGAAAAAAAAAAAAAAAACGAGAAGGCGCGAGAA [salish99-SS1-002]
apparent KD of MS2 coat protein (MS2 coat protein [1]): 58.2 nM
apparent KD of MS2 coat protein (MS2 coat protein [2]): 35.4 nM

AAAAGACAUGAGGAUCACCCAUGUCAAGACGUAGGAGGAUAUGUCGUGAAAAAAGACUUGGCAGAAGGCCUGUGUC [SS1 - 41]
apparent KD of MS2 coat protein (MS2 coat protein [1]): 21.4 nM
apparent KD of MS2 coat protein (MS2 coat protein [2]): 15 nM

AUAAAAUACUGUGAGGAUAUCCAUAAUAAAACAUGAGGAUCACCCAUGUGUAGAUAAUAAUAAUGGGAGAAGGCACAUAAUAAUA [Mat - Same state - Mayanna Mod - D101]
apparent KD of MS2 coat protein (MS2 coat protein [1]): 41 nM
apparent KD of MS2 coat protein (MS2 coat protein [2]): 15.7 nM

AAAAACAUAGUUCAGGAUAUGGUAAUAGUCACAUGAGGAUCACCCAUGUUCAUUUAUAUGAGCGAUCAGAAGGGAGGUAAAAAAA [Mat - Same state - Malcolm Mod - D115]
apparent KD of MS2 coat protein (MS2 coat protein [1]): 125 nM
apparent KD of MS2 coat protein (MS2 coat protein [2]): 124 nM

AUUUUACAUGAGGAUCACCCAUGUUUUGGUGGAUCAGGAUAUAAAUUGAAUGAGUUUUAGUUAGAAGGGAUAUAUA [JR_SS001_Sub505]
apparent KD of MS2 coat protein (MS2 coat protein [1]): 54 nM
apparent KD of MS2 coat protein (MS2 coat protein [2]): 78.4 nM

AAAGACAUAGUUCAGGAUAUGGUAAUAGUCACAUGAGGAUCACCCAUGUUCAUUUAUAUGAGCGAUCAGAAGGGAGGUAAAAAAA [SameState2 Malc#15]
apparent KD of MS2 coat protein (MS2 coat protein [1]): 244 nM
apparent KD of MS2 coat protein (MS2 coat protein [2]): 182 nM
